Experimental data: US20110224139A1

T1: Ac-…-CONH2 (RAD16-II) self-assembling peptide, as nanofiber hydrogel
T1 sequence (peptide, N-terminal acetyl (Ac); C-terminal amide (CONH2)): RARADADARARADADA

T2: SDF-1(S4V)-N-terminal peptide (first 8 amino acids of SDF-1(S4V), FRET peptide)
T2 chain: KPVVLSYR

T3: SDF-1-N-terminal peptide (first 8 amino acids of SDF-1, FRET peptide)
T3 chain: KPVSLSYR

B1: Human recombinant MMP-2 (R&D Systems), activated with 4-aminophenylmercuric acetate (protein)
chain: YNFFPRKPKWDKNQITYRIIGYTPDLDPETVDDAFARAFQVWSDVTPLRFSRIHDGEADIMINFGRWEHGDGYPFDGKDGLLAHAFAPGTGVGGDSHFDDDELWTLGEGQVVRVKYGNADGEYCKFPFLFNGKEYNSCTDTGRSDGFLWCSTTYNFEKDGKYGFCPHEALFTMGGNAEGQPCKFPFRFQGTSYDSCTTEGRTDGYRWCGTTEDYDRDKKYGFCPETAMSTVGGNSEGAPCVFPFTFLGNKYESCTSAGRSDGKMWCATTANYDDDRKWGFCPDQGYSLFLVAAHEFGHAMGLEHSQDPGALMAPIYTYTKNFRLSQDDIKGIQELYGASPDIDLGTGPTPTLGPVTPEICKQDIVFDGIAQIRGEIFFFKDRFIWRTVTPRDKPMGPLLVATFWPELPEKIDAVYEAPQEEKAVFFAGNEYWIYSASTLERGYPKPLTSLGLPPDVQRVDAAFNWSKNKKTYIFAGDKFWRYNEVKKKMDPGFPKLIADAWNAIPDNLDAVVDLQGGGHSYFFKGAYYLKLENQSLKSVKFGSIKSDWLGC

What was measured:
[1] = biological target: T1, Ac-…-CONH2 (RAD16-II) self-assembling peptide, as nanofiber hydrogel; test: in vitro binding experiment: release of 100 nM Alexa-488 labeled protein from a nanofiber hydrogel in culture inserts
[2] = biological target: T2, SDF-1(S4V)-N-terminal peptide (first 8 …)
[3] = biological target: T3, SDF-1-N-terminal peptide (first 8 amino …)

| percent released from the nanofibers over 24 hours [1] [%] | Molecule | amount of peptide cleaved after 4 hours (FRET peptide cleavage) [2] | initial cleavage rate [2] | amount of peptide cleaved after 4 hours (FRET peptide cleavage) [3] [pmol] | initial cleavage rate [3] | rate of cleavage relative to SDF-1 (times lower), SDS-PAGE (Sumo-SDF-1(S4V)-RAD) | cleavage seen by SDS-PAGE (Sumo-SDF-1-RAD) |
| --- | --- | --- | --- | --- | --- | --- | --- |
| 73 | Alexa-488 labeled SSDF-1 (from UniProt P48061 22-89) (ligand) | – | – | – | – | – | – |
| – | B1 | no significant amount (1±3 pmol) | 0.1±0.1×10^-10M s^-1 | 205 ± 18 | 2.0±0.1×10^-10M s^-1 | the rate of SDF-1(S4V) cleavage is at least 48 times lower than SDF-1 | more Sumo-SDF-1-RAD was cleaved within 1 hour than Sumo-SDF-1(S4V)-RAD in 48 hours |
